B1: J2 (Jointless-2, Solyc12g038510) SEP4-homolog MADS-box protein (other)
chain: MGRGRVELKRIENKINRQVTFAKRRNGLLKKAYELSILCDAEVALIIFSSRGKLYEFSSASSMMTTLEKYQQCSYASLDPMLPVSDTQMNYNEYVRLKARVELLQRSQRHILGEDLGTLNSKELEQLEHQLDASLKKVRSKKTQSMLDQLADLQEKEQMLEEANKQLKNKLEESAARIPLGLSWGNNGGQTMEYNRLPPQTTAQPFFQPLRLNSSSPQFGYNPNMGANDHEVNAATTAHNINGFIPGWML
B2: EJ2 (Enhancer-of-Jointless-2, Solyc03g114840) SEP4-homolog MADS-box protein (other)
chain: MGRGRVELKRIENKINRQVTFAKRRNGLLKKAYELSVLCDAEVALIIFSNRGKLYEFCSTSSMVKTIEKYQRCSYATLEANQSVTDTQNNYHEYLRLKARVELLQRSQRNFLGEDLGTLSSKDLEQLENQLESSLKQIRSRKTQFMLDQLADLQQKEQMLAESNRLLRRKLEESVAGFPLRLCWEDGGDHQLMHQQNRLPNTEGFFQPLGLHSSSPHFGYNPVNTDEVNAAATAHNMNGFIHGWML

Experiments:
[1] = biological target: the molecule itself; assay: yeast two-hybrid, FIG. 5C
Method: (§1) Protein interaction assays in yeast were performed using the Matchmaker Gold Yeast Two-Hybrid System (Clontech) as described before (Park et al., 2014b). The coding sequences for bait proteins were cloned into the pGBKT7 vector, and the resulting vectors were transformed into the Y2HGold yeast strain. The coding sequences for prey proteins were cloned into the pGADT7 AD vector, and the resulting vectors were transformed into the Y187 yeast strain. After mating the two yeast strains expressing bait and prey proteins, diploid yeast cells were selected and grown on dropout medium without leucine and tryptophan. To assay protein-protein interactions, clones were grown on triple-dropout medium without leucine, tryptophan, and histidine for 3 d at 30° C. To block auto-activation, 3 mM 3-amino-1,2,4-triazole (3-AT) were added or adenine was removed from the triple-dropout medium. All primer sequences used for cloning can be found in Table 2.

[2] = biological target: the molecule itself; assay: yeast two-hybrid (Matchmaker Gold; growth on -L-T-H medium)
Method: as §1

| Protein | binding result [1] | binding result [2] |
| --- | --- | --- |
| B1 | binds |  |
| B2 |  | no binding |

Reference: US20200299706A1 (COLD SPRING HARBOR LABORATORY, published 2020)
